Reference: patent US20180127503A1 (EUREKA THERAPEUTICS, published 2018)

B1: ROR2 clone #024 scFv phage antibody (scFv, V domains shown)
VH: EVQLVQSGAEVKKPGESLKISCKASGYSFSNYWIGWVRQMPGKGLEWMGIIYPDDSDTRYSPSVQGQVTISADKSISTAYLQWYSLKVADTAKYYCVRPRGAFDIWGQGTTVTVSS
VL: EIVMTQSPATLSVSPGESATLSCRASQGVGINLAWYQQRPGQPPRLLIYDASNRATGIPARFSGSGSGTDFTLTISSLQAEDVAVYYCQQYYSFPWTFGQGTKVEIKR
notes: also called clone #24; ROR2-24
B2: ROR2 clone #096 scFv phage antibody (scFv, V domains shown)
VH: EVQLVQSGGGLVQPGGSLRLSCAASGFSLNDYYMDWVRQAPGEGLEWVGRIRDKAHGDTTEYIASVKDRFIVSRDDSKNSLYLQMNSLKTEDTAMYYCARWVDDYQGYWIWSYHDFWGQGTLVTVSS
VL: EIVLTQSPLSLPVTLGQPASISCRSSQSLAYSDGNTYLNWFHQRPGQSPRRLIYKVSKRDSGVPDRFSGSGSGTDFTLRISRVEAEDVGIYYCMQGTHWPHTFGPGTKVDIKR
notes: also called clone #96; ROR2-96
B3: ROR2 clone #084 scFv phage antibody (scFv, V domains shown)
VH: QVQLVESGGGLVQPGGSLRLSCAASGFTFSSYWMSWVRQAPGKGLEWVANIKQDGSEKYYVDSVRGRFTISRDNAKNSLYLQMNSLRAEDTAMYYCARGSFSYDSDLWGQGTLVTVSS
VL: DVVMTQSPLSLPVTLGQPASISCRSSQSLVHSDGNTYLNWFQQRPGQSPRRLIYKVSSRDSGVPDRFSGTGSGTDFTLKISRVEAEDVGVYYCMQTTHWPPTFGQGTKVEIKR
notes: also called clone #84; ROR2-84
B4: ROR2 clone #173 scFv phage antibody (scFv, V domains shown)
VH: QVQLVQSGAEVKKPGASVKVSCKASGYTFTSYGISWVRQAPGQGLEWMGWISAYNGNTNYAQKLQGRVTMTTDTSTSTAYMELRSLRSDDTAVYYCARHLGPMGMYDWSFDKWGQGTLVTVSS
VL: QSVLTQPPSVSVAPGKTARITCGGDNIGRKSVHWYQQKPGQAPVLVIYYDSDRPSGIPERFSGSTSGNTATLTISRVEAGDEADYYCQVWDRSSDLYVFGTGTKVTVLG
notes: also called ROR2-173
B5: ROR2 clone #016 scFv phage antibody (scFv, V domains shown)
VH: EVQLVQSGAEVKKPGASVKVSCKASGYTFTDYYIHWVRQAPGQGLEWMGWMNPNSGNSVSAQKFQGRVTMTRDTSINTAYMELSSLTSDDTAVYYCARNSEWHPWGYYDYWGQGTLVTVSS
VL: SSELTQDPAVSVALGQTVRITCQGDSLRSYYASWYQQKPGQAPVLVIYGKNNRPSGIPDRFSGSSSGNTASLTITGAQAEDEADYYCNSRDSSGNHLVFGGGTKLTVLG
notes: also called clone #16; ROR2-16
B6: ROR2 clone #093 scFv phage antibody (scFv, V domains shown)
VH: QMQLVQSGGGVVQPGRSLRLSCAASGFTFSNYDMHWVRRAPGKGLEWVAVISYDGSNNYYADSVKGRFTISRDNSKNTLYLQMNSLRAEDTAVYYCARSSAWVGGGFLSGTDDWGQGTLVTVSS
VL: EIVMTQSPATLSLSPGERATLSCGASQSVSSSYLAWYQQKPGLAPRLLIYDTSRRATGIPDRFSGSGSGTDFTLTISRLEPEDFAVYYCLHYGRSPPVTFGGGTKVEIKR
notes: also called clone #93; ROR2-93
B7: ROR2 clone #121 scFv phage antibody (scFv, V domains shown)
VH: QVQLVQSGGGLVQPGGSLRLSCAATGFTFSSYAMSWVRQAPGKGLEWVSVISGSGGSTYYADSVKGRFTISRDNSKNTLYLQMNSLRADDTAVYYCARHYYSSDSWGQGTLVTVSS
VL: SYVLTQPPSVSVSPGQTASVTCSGYRLREKYVSWYQQRPGHSPVLVIYEDTKRPSGIPERFSGSNSGDTATLTIRGTQAIDEADYYCQAWDSSVIFGGGTKLTVLG
notes: also called ROR2-121
B8: ROR2 clone #159 scFv phage antibody (scFv, V domains shown)
VH: QMQLVQSGAEVKKPGASVKVSCKASGYTFTSYYMHWVRQAPGQGLEWMGIINPSGGSTSYAQKFQGRVTMTRDTSTSTVYMELSSLRSEDTAVYYCARGGYTGWSPSDPWGQGTLVTVSS
VL: QSALTQPASVSGSPGQSITISCTGTSSDVGGYNYVSWYQQHPGKAPKFMIYDVSKRPSGVSNRFSGSKSGNTASLTISGLQAEDEADYYCGSFTSSITYVFGTGTKVTVLG
notes: also called ROR2-159

Target: T1, human ROR2 ECD-Fc fusion protein (human, UniProt Q01974 34-403)
T1 construct: Panning and phage ELISA antigen; also called human ROR2-ECD (phage ELISA); not shown: Fc part and any linker are not described
T1 sequence (Q01974 34-403): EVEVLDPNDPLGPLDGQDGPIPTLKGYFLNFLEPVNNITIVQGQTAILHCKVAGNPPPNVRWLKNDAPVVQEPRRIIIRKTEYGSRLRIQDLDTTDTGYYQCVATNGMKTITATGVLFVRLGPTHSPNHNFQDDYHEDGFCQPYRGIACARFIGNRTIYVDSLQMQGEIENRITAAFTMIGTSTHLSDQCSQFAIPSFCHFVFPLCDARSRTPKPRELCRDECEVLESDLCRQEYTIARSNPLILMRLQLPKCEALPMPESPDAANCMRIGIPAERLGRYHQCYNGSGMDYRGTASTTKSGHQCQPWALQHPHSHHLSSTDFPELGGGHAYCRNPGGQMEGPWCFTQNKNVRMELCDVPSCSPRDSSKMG
Assay: phage ELISA on coated ROR2 ECD-Fc

Row | Binder | binding result
1 | B1 | binds

Target: T1, human ROR2 ECD-Fc fusion protein
Assay: summary of the phage clone screening (ELISA)

Row | Binder | binding result
2 | B2 | binds
3 | B3 | binds
4 | B4 | binds
5 | B5 | binds
6 | B6 | binds
7 | B7 | binds
8 | B8 | binds

Target: T2, human ROR1 ECD-Fc fusion protein (human, UniProt Q01973 30-406)
T2 construct: not shown: Fc part and any linker are not described
T2 sequence (Q01973 30-406): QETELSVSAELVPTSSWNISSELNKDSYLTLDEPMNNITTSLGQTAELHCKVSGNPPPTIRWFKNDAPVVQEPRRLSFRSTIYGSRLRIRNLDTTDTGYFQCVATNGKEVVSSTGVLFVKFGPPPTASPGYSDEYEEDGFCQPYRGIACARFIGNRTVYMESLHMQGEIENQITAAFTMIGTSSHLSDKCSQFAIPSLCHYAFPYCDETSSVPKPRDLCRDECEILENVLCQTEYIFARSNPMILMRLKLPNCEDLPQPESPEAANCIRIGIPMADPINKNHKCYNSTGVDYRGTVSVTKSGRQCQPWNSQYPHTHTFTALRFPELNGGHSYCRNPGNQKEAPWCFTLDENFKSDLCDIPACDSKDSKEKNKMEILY
Assay: summary of the phage clone screening (ELISA)

Row | Binder | binding result
9 | B5 | binds
10 | B8 | binds
